T1: ChemR23 (Mus musculus, UniProt P97468)
T1 chain: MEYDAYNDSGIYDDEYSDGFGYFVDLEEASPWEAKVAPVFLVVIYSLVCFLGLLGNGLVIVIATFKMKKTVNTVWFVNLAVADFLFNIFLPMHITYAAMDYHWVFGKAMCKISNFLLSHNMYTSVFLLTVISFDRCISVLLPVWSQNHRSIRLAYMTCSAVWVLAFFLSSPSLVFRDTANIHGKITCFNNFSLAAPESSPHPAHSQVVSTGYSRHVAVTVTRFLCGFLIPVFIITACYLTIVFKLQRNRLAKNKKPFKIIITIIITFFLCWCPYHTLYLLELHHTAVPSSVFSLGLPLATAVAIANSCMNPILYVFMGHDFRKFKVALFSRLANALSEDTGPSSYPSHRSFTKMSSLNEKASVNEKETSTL

T2: ChemR23 (Homo sapiens, UniProt Q99788)
T2 chain: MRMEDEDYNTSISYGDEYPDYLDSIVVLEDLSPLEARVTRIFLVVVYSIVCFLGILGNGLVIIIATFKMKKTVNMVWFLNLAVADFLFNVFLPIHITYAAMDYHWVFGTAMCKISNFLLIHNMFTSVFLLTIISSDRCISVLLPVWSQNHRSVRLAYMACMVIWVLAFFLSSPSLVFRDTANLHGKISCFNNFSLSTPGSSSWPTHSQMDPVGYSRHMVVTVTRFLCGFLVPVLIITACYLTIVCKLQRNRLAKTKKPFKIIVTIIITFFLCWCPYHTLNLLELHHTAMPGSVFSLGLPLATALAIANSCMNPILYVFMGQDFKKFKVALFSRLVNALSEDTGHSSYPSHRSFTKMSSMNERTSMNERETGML


Tests used:
[1] = target: T1, ChemR23; assay: radioligand saturation binding (CHO-K1 cells)
[2] = target: T1, ChemR23; assay: radioligand saturation binding (125I-chemerin, peritoneal macrophages)
[3] = target: T2, ChemR23; assay: radioligand

Row | Binder | Kd [1] | Kd [2] | Kd [3]
1 | chemerin (protein, 125I-labelled chemerin) ELTEAQRRGLQVALEEFHKHPPVQWAFQETSVESAVDTPFPAGIFVRLEFKLQQTSCRKRDWKKPECKVRPNGRKRKCLACIKLGSEDKVLGRLVHCPIETQVLREAEEHQETQCLRVQRAGEDPHSFYFPGQFAFS | 1.1 nM | ~1.2 nM | 
2 | chemerin (protein) ELTEAQRRGLQVALEEFHKHPPVQWAFQETSVESAVDTPFPAGIFVRLEFKLQQTSCRKRDWKKPECKVRPNGRKRKCLACIKLGSEDKVLGRLVHCPIETQVLREAEEHQETQCLRVQRAGEDPHSFYFPGQFAFS |  |  | 0.9 nM
